Experiment [1] addresses T1, hSEZ6-ECD-His (human, UniProt Q53EL9 20-925).
T1 construct: the whole entry is named; also called recombinant SEZ6-His; human recombinant SEZ6-His
As to the kind of experiment: SPR, Biacore 2000 (data not shown). (In general: SPR reads the build-up and loss of mass on a sensor chip optically.)

In experiment [2] the target is T2, SEZ6 Sushi Domain 1 (amino acids 336-395) on yeast (human, UniProt Q53EL9 355-414).
T2 construct: yeast display
As to the kind of experiment: yeast display, flow cytometry.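 Further: antibody binding to individual SEZ6 domains displayed on yeast, measured by flow cytometry, antibody at 50 nM purified or hybridoma supernatant diluted 1:2, 90 min on ice.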

The target of experiment [3] is T3, rat SEZ6 on RIN-m5F cells (rat, UniProt Q7TSK2 20-991 (mouse entry)).
T3 construct: endogenous on RIN-m5F cells; also called rSEZ6
T3 chain: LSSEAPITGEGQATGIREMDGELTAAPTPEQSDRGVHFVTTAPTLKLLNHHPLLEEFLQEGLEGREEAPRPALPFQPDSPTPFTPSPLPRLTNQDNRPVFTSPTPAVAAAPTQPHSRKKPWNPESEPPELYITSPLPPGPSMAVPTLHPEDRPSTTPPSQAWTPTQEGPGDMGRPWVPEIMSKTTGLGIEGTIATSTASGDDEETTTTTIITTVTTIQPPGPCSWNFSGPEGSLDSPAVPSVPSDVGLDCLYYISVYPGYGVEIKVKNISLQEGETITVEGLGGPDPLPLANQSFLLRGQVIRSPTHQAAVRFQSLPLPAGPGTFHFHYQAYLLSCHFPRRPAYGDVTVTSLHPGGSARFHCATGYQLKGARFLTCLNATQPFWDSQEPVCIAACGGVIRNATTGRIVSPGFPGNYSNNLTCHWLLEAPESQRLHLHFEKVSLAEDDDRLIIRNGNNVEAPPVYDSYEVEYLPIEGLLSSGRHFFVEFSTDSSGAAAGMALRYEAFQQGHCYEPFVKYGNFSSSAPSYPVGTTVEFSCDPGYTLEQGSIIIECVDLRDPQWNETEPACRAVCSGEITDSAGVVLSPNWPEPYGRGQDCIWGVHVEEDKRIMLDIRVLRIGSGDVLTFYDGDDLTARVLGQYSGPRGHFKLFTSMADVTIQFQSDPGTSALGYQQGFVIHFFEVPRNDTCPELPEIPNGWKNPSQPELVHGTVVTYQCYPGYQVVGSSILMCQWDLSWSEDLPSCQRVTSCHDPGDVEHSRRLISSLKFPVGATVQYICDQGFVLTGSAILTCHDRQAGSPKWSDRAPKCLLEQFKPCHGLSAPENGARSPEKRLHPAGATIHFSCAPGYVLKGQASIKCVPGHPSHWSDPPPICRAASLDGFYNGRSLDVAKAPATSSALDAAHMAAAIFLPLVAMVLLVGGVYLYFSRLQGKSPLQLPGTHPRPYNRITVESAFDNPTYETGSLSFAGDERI
As to the kind of experiment: flow cytometry on RIN-m5F cells expressing rat SEZ6, verified by BLI or SPR on rat SEZ6-His. (In general: In flow cytometry, cells or beads pass a laser one at a time.)

Experiment [4] has as its target T4, SEZ6 N1 (amino acids 1-70) on yeast (human, UniProt Q53EL9 20-89).
T4 construct: yeast display
T4 sequence: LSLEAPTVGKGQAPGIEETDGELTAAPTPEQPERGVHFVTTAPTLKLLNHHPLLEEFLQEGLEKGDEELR
As to the kind of experiment: yeast display, flow cytometry.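 Further: antibody binding to individual SEZ6 domains displayed on yeast, measured by flow cytometry, antibody at 50 nM purified or hybridoma supernatant diluted 1:2, 90 min on ice.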

The target in experiment [5] is T5, human SEZ6L2 ECD-His (human, UniProt Q6UXD5 28-843).
T5 construct: whole entry named
As to the kind of experiment: ELISA on plates coated with SEZ6L2 protein. (An ELISA detects its analyte on a solid surface through an enzyme-linked reagent.)

Experiment [6] deals with T6, mouse SEZ6 on Neuro2a cells (mouse, UniProt Q7TSK2 20-991).
T6 construct: endogenous on Neuro2a cells; also called murine SEZ6; mSEZ6
As to the kind of experiment: flow cytometry on Neuro2a cells expressing mouse SEZ6.

Experiment [7] has as its target T7, human SEZ6L ECD-His (human, UniProt Q9BYH1 29-955).
T7 construct: whole entry named
T7 sequence: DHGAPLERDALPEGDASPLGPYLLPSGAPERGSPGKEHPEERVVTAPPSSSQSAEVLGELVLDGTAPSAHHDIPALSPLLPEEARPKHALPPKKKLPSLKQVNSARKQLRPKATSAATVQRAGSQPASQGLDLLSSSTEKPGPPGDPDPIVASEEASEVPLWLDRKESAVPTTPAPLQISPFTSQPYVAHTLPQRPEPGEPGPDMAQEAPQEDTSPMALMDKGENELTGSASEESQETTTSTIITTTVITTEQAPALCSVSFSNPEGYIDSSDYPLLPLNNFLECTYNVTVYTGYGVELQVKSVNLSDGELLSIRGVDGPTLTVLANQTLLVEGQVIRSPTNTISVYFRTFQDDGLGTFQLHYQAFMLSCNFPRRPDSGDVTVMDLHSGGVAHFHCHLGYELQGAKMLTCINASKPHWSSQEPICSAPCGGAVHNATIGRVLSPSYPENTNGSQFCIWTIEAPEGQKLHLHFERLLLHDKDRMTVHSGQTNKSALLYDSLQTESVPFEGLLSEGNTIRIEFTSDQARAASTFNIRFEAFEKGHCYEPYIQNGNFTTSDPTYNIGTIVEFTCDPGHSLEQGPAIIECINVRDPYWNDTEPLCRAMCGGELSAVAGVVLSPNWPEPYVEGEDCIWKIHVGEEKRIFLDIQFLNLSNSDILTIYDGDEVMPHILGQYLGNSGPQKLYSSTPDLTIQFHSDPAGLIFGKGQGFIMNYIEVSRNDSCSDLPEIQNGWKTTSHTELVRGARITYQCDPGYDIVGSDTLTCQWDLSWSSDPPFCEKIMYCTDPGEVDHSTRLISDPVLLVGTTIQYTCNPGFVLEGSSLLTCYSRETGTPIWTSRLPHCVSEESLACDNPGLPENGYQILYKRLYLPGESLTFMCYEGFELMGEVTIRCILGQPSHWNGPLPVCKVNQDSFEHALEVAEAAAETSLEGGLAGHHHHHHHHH
As to the kind of experiment: ELISA on plates coated with SEZ6L protein.

In experiment [8] the target is T1, hSEZ6-ECD-His. As to the kind of experiment: bio-layer interferometry (ForteBio RED) or surface plasmon resonance (Biacore 2000) on human SEZ6-His; the table does not say which; column Hu Affinity (Kd, nM).

T5 sequence (Q6UXD5 other isoform, or with tags, fused parts or gaps): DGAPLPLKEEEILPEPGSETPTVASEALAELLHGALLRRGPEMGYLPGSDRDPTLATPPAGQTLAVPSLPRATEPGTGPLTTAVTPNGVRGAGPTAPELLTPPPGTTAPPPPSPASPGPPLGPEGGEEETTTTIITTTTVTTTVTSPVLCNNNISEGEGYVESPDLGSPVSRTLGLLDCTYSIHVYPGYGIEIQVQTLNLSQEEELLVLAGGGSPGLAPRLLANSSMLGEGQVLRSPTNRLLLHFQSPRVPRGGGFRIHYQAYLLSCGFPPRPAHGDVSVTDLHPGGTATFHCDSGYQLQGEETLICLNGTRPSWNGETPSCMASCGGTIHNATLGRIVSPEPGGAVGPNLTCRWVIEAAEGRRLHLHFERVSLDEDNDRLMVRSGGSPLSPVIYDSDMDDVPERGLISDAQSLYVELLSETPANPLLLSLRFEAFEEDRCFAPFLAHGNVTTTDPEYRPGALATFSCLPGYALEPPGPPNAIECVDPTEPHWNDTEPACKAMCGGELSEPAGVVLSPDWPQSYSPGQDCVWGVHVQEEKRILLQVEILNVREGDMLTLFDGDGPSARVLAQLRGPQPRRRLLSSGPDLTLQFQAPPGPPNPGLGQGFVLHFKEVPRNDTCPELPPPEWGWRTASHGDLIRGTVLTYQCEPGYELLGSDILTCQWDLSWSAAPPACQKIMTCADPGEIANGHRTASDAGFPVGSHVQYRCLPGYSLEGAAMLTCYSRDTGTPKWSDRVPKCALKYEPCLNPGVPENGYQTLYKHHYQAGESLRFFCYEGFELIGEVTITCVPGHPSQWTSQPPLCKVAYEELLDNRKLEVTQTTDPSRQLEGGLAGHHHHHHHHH

B1: hSC17.28 (antibody, human IgG1, V domains shown)
VH: QVQLVQSGAEVKKPGASVKVSCKASGYTFTRSYIHWVRQAPGQGLEWMGYISSGSGGTTYNQKFKGRVTSTRDTSISTAYMELSRLRSDDTAVYYCARGGVRYFDVWGQGTTVTVSS
VL: EIVLTQSPDFQSVTPKEKVTITCRASQSIGTSIHWYQQKPDQSPKLLIKYASESISGVPSRFSGSGSGTDFTLTINSLEAEDAATYYCQQSNSWPLTFGQGTKLEIK
notes: humanized, human IgG1/kappa
With B1, the binding result in experiment [1] is “binds”.

B2: hSC17.16 (antibody, human IgG1, V domains shown)
VH: QVQLVQSGAEVKKPGASVKVSCKASGYTFTDYNMYWVRQAPGQGLEWMGEINPNNGGTAYNQKFRGKVTMTRDTSISTAYMELSRLRSDDTAVYYCARYDKGFDYWGQGTTVTVSS
VL: DIQMTQSPSSLSASVGDRVTITCRASANINSNLVWYQQKPGKAPKLLIYAATNLADGVPSRFSGSGSGTDFTLTISSLQPEDFATYYCQHFWGTPRTFGGGTKLEIK
notes: humanized; human IgG1 heavy and human kappa light constant regions
Regarding B2, the binding result in experiment [1] is recorded as “binds”.

B3: hSC17.17 (antibody, human IgG1, V domains shown)
VH: QVQLVQSGAEVKKPGASVKVSCKASGYTFTDYNMHWVRQAPGQGLEWMGEINPNIGGTGYNQKFKGRVTMTRDTSISTAYMELSRLRSDDTAVYYCARTYSYYSYEFAYWGQGTLVTVSS
VL: EIVLTQSPATLSLSPGERATLSCSASSSVSYMHWYQQKPGQAPRLLIYDTSKLPSGIPARFSGSGSGTDFTLTISSLEPEDFAVYYCQQWSSTPPTFGQGTKLEIK
notes: humanized, human IgG1/kappa
Regarding B3, in experiment [1], the binding result is “binds”.

B4: SC17.187 (antibody, V domains shown)
VH: EVHLQQSGPELVNPGSSVKISCKAAGYTFTDYNMDWVKQSHGKRLEWIGNIYPNNGGAGYNQNFKDKATLTVDKSSSTAYMELRSLTSEDSAVYYCARSITAAWFAYWGQGTLVTVSA
VL: DIKMTQSPSSMYASLGERVTLTCKASQDINSYLSWFQQKPGKSPETLIYRANRLIDGVPSRFSGSGSGQDYSLTISSLEYEDMGIYYCLQYDEFPPTFGGGTKLEIK
notes: murine mAb
With B4, the binding result in experiment [2] is “binds”.

B5: SC17.4 (antibody, V domains shown)
VH: QIQLVQSGPELKKPGETVKISCKASGYTFTDYSMHWVKQAPGKGLKWLGWINTETGEPTYSEDFKGRFAFSLETSASTAYLQINNLKNEDTATYFCVKNKGWFAYWGQGTLVTVSA
VL: DIKMTQSPSSMYASLGERVTITCKASQDINSYLTWFQQKPGKSPKTLIYRANRLIDGVPSRFSGSGSGQDYSLTISSLDYEDMGIYYCLQYDDFPWTFGGGTKLEIK
notes: murine mAb
As to B5, the binding result is reported as “no binding (tested: 5 µg/mL)” in experiment [3]; “binds” in experiment [4]; “no binding (tested: 1 µg/mL)” in experiment [5]; “no binding (tested: 5 µg/mL)” in experiment [6]; “no binding (tested: 1 µg/mL)” in experiment [7].

B6: SC17.200 (antibody, V domains shown)
VH: QVQLQQSGPELVKPGASVKISCKASGYAFSSSWINWVKQRPGQGLEWIGRIYPGEGDTNYSGNFEGKATLTADKSSTTAYMQLSSLTSVDSAVYFCTRGLVMDYWGQGTALTVSS
VL: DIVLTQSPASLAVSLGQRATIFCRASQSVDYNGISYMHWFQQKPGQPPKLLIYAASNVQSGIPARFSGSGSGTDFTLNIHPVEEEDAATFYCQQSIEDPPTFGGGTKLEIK
notes: murine mAb
Take B6: the binding result in experiment [2] is recorded as “binds”.

B7: SC17.45 (antibody, V domains shown)
VH: QVQLQQPGSVLVRPGDSVKLSCKASGYTFTSYWMHWVKQSPGQGLEWIGEIHPHSGSTNYNEKFKGKATLTVDTSSSTAYVDLSSLTSEDSAVYYCVGGHYDYWGQGTTLTVSS
VL: ENVLTQSPAIMSASPGEKVTMTCSASSSVNYMYWYQQKSSTSPKLWIYDTSKLTSGVPGRFSGSGSGNSYSLTISNMEAEDVATYYCFQGSGYPLTFGSGTKLEIK
notes: murine mAb
For orientation: Kd means a measure of binding affinity in units of concentration. Low readings indicate tighter binding, high ones weaker binding. With B7, the binding result is listed as “no binding (tested: 5 µg/mL)” in experiment [3], “no binding (tested: 1 µg/mL)” in experiment [5], “no binding (tested: 5 µg/mL)” in experiment [6] and “no binding (tested: 1 µg/mL)” in experiment [7]. This molecule returned a dissociation constant Kd in experiment [8] of 17.4 nM.

B8: SC17.49 (antibody, V domains shown)
VH: QVQLQQSGAELVRPGASVTLSCKASGYTFTDYEMHWVKQTPVHGLEWIGGIDPETGGTAYNQKFKGKATLTADKSSSTAYMELRSLTSEDSAVYFCTRWFSYWGPGTLVTVSA
VL: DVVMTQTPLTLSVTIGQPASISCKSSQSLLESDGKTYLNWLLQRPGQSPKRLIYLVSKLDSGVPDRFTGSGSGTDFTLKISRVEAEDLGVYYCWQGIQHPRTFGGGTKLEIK
notes: murine mAb
For B8, the binding result in experiment [3] is given as “no binding (tested: 5 µg/mL)”; in experiment [5], “no binding (tested: 1 µg/mL)”; in experiment [6] it was “no binding (tested: 5 µg/mL)”; in experiment [7], “no binding (tested: 1 µg/mL)”. The affinity in experiment [8], expressed as Kd, was 23.1 nM.

B9: SC17.82 (antibody, V domains shown)
VH: EVQLQQSGPELVKPGASVKMSCKASGYTFTDSYMNWVKQSHGKSLEWIGRVNPNNGGASYNHKFKGKATLTVDKSLSTAYMRLNSLTSEDSAVYYCSRSGDLYYYAMDYWGQGTSVTVSS
VL: QIVLTQSPAIMSASLGEEITLTCSASSSVSYMHWYQQKSGTSPKLLIYSTSNLASGVPSRFSGSGSGTFYSLTISSVEAEDAADYYCHQWSSFTFGSGTKLEIK
notes: murine mAb
Regarding B9, the binding result in experiment [2] is “binds”.

B10: SC17.87 (antibody, V domains shown)
VH: EVQLQQSGAELLKPGASVKLSCTASGLNIKDYYIHWVYQRPEQGLEWIGRIDPESDNTLYDPKFQGKASITADTSSNTAYLQLSSLTSEDTAVYYCTTNTPFAYWGQGTLVTVST
VL: DVVMTQTPLSLPVSLGDQASISCRSSQSLVHSNGNTYLHWYLQKPGQSPKLLISKVSNRFSGVPDRFSGSGSGTDFTLKISRVEAEDLGVYFCSQSTHVPPMFGGGTRLEIK
notes: murine mAb
For B10, in experiment [2], the binding result is “binds”.

B11: SC17.97 (antibody, V domains shown)
VH: QVQLPQSGAELAKPGASVKISCKASGFTFTSYWMHWVKQRPGQGLEWIGYINPSTDYTEYNQKFKDKATLTADKSSSTAYMQLGSLTSEDSAVYYCARSSYGSSPFDYWGQGSTLTVSS
VL: DVVMTQTPLSLPVSLGDQASISCRSSQSLVHNNGNTYLHWYLQKPGQSPNLLIYKVSNRFSGVPDRFSGSGSGTDFTLKISIVEAEDLGLYFCSQSTHVPRTFGGGTKLEIK
notes: murine mAb
Consider B11, for which, in experiment [2], the binding result is “binds”.

For the origin of these results see US20190022241A1 (AbbVie / Abbott, published 2019).
